# Laboratory results as given in patent US20160032001A1 (APEXIGEN, published 2016).
# Read-outs that look alike come from different tables or passages of the source.
# T1: RANKL expressed on the surface of 293 cells (UniProt O14788 1-317, limits assumed)
# T1 construct: whole, on cells; also called RANKL-transfected 293 cells; cells expressing RANKL
# T1 sequence (looked up): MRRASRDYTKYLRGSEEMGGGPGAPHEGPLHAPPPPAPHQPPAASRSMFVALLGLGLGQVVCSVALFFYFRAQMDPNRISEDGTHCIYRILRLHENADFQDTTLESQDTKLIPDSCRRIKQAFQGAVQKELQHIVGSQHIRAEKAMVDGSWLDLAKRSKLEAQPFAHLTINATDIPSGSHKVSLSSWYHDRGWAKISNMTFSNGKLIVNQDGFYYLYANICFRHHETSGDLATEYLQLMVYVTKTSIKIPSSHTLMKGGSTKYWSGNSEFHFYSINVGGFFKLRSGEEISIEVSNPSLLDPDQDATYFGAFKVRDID
# T2: human RANKL protein (human, UniProt O14788 140-317, limits assumed)
# T2 sequence (looked up): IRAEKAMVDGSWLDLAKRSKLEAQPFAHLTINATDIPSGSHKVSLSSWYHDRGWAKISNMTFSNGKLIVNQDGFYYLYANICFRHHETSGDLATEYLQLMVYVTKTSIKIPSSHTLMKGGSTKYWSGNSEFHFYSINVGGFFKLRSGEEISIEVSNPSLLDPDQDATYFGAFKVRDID
# How the values were obtained:
# [1] = biological target: T1, RANKL expressed on the surface of 293 …; test: flow cytometry (MFI) on RANKL-transfected 293 cells
# human RANKL protein [2] = biological target: T2, human RANKL protein; test: competition ELISA: RANKL (0.5 ug/ml) pre-incubated with the antibody, then binding to coated human RANK (8 ug/ml) detected; blocked partner RANK
# [3] = biological target: T1, RANKL expressed on the surface of 293 …; test: flow cytometry (MFI) on RANKL-transfected 293 cells; remark: listed apart in the source
# human RANKL protein [4] = biological target: T2, human RANKL protein; test: ELISA on RANKL protein (OD450nm)
# human RANKL protein [5] = biological target: T2, human RANKL protein; test: competition ELISA: RANKL (0.5 ug/ml) pre-incubated with the antibody, then binding to coated RANK (8 ug/ml) detected; blocked partner RANK [table at the lower right]
Binder,EC50 [1] [µg/mL],IC50 (human RANKL protein [2]) [µg/mL],EC50 [3] [µg/mL],EC50 (human RANKL protein [4]) [µg/mL],IC50 (human RANKL protein [5]) [µg/mL]
"clone 476 rabbit anti-RANKL antibody (antibody, V domains shown) VH: QSLEESGGGLVQPEGSPTLTCTAYLIDFSRYGYMCWVRQAPGKGLEWIGCIHAGRSGRTYYANWAKGRFTISKTSSTTVTLQMTSLTAADTATYFCAKSGDSYVGYFALWGPGTLVTVSS VL: DIVMTQTPASVEAAVGGTVTIKCQASENIYNYLSWYQQKPGQPPKLLIYEASKLASGVSSRFKGSGSGTEFTLTISDLECADAATYYCQSYYDVTSHSYDNPFGGGTEVVVS",0.0632,0.0301,–,–,–
"clone 547 rabbit anti-RANKL antibody (antibody, V domains shown) VH: QEQLKESGGGLVTPGGTLTLTCTASGFSLSSNGMSWVRQAPGKGLEWIGYIYSGSSPYYASWAKGRFTISKTSSTTVDLKMTSLTTEDTAKYFCARHVSGGGWYLDIWGPGTLVTVSL VL: DMIQTPASVEVAVGGTVTINCQASQSIGSNLAWYQQKPGQRPKLLIYGASTLASGVSSRVKGSGSGTQFTFTISDVECTDAATYYCQQAYSISNVDNAFGGGTEVVVK",0.398,0.0812,–,–,–

# Next, values leading:
EC50 [1] [µg/mL],IC50 (human RANKL protein [2]) [µg/mL],EC50 [3] [µg/mL],EC50 (human RANKL protein [4]) [µg/mL],IC50 (human RANKL protein [5]) [µg/mL],Binder
0.172,0.0284,–,–,–,"clone 480 rabbit anti-RANKL antibody (antibody, V domains shown) VH: QSLEESGGRLVTPGGSLTLTCTVSGFSLSNYEINWVRQAPGKGLEWIGYIDVGSGTWYASWAKGRFTISKTSTTVDLKITSPTTGDTATYFCSRSYNPMDLWGPGTLVTVSS VL: DMTQTPASVEVAVGGTVTIKCQASQNIGSNLAWYQQKPGQRPKLLIYSASTLASGVPSRFKGSGSGTQFTLTISGVQCDDAATYYCQQGYSVGNVNNAFGGGTEVVVK"
–,–,0.947,0.0238,0.081,"humanized clone 23 antibody, VH 23HZD-1 HC with humanized VL 23 Vkb, IgG2 (antibody, V domains shown, also called humanized 23 vkb; humanized 23 VKB) VH: EVQLVESGGGLVQPGGSLRLSCAASGFSLSSDGMSWVRQAPGKGLEWIGYIYSGSSPYYANWAKGRFTISKDSSKNTVYLQMNSLRAEDTAVYFCARHGSGGGWYLDIWGPGTLVTVSS VL: DIQMTQSPSSLSASVGDRVTINCQASQSIGSNLAWYQQKPGKRPKLLIYAASTLPSGVPSRFSGSGSGTDFTLTISSLQPEDFATYYCQQAYSVGNVDNAFGGGTKVEIK"
